No end group written: not given here.

The target of assay [1] is DvlPDZ domain (endogenous Dvl in the treated cells). Briefly: cell-based or functional assay.
Assay [2] concerns the target T1, GST-Dvl2PDZ fusion protein (human, UniProt O14641 248-364).
T1 construct: range 248-364; Made with the pGEX E. coli expression system; also called GST-PDZ fusion protein; not shown: glutathione S-transferase (GST) encoded by plasmid pGEX
T1 sequence (looked up): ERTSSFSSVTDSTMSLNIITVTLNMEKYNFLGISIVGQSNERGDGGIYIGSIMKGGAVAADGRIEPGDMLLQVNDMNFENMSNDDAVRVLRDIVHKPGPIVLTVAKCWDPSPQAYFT
Briefly: phage display selection on GST-Dvl2PDZ. On the procedure:
The libraries were cycled through rounds of binding selection with a GST-Dvl2PDZ fusion protein coated on 96-well Maxisorp immunoplates as the capture target. Phage were propagated in E. coli XL1-blue with M13-KO7 helper phage and 10 μM IPTG. After four rounds of binding selection, individual phage clones were analyzed in a high-throughput phage ELISA, and positive clones were subjected to DNA sequence analysis.
We used decapeptide libraries fused to the C-terminus or N-terminus of the phage coat protein. The library contained NNK degenerate codons that encoded all 20 natural amino acids. The possible occurrence of amber stop codons in the degenerate codon also provided for the display of shorter peptides for the C-terminal library. Each library was cycled through four rounds of binding selection with immobilized GST-Dvl2PDZ fusion protein as the capture target.

In assay [3] the target is T1, GST-Dvl2PDZ fusion protein. Briefly: competition ELISA; GST-Dvl2PDZ (600 nM) binding to immobilized biotin-KWYGWL. How it is done: Affinity assays-The binding affinities of peptides for Dvl2PDZ were determined as IC₅₀ values using a competition ELISA, as previously described. The IC₅₀ value was defined as the concentration of peptide that blocked 50% of PDZ domain binding to immobilized peptide. Assay plates were prepared by immobilizing an amino-terminally biotinylated peptide (KWYGWL_-COOH) (SEQ ID NO: 169) on Maxisorp immunoplates coated with neutravidin and blocked with BSA. A fixed concentration of GST-PDZ fusion protein (600 nM) in PBS, 0.5% BSA, 0.1% Tween 20 (PBT buffer) was preincubated for 1 h with serial dilutions of peptide and then transferred to the assay plates. After 15 min incubation, the plates were washed with PBS, 0.05% Tween 20, incubated with a mixture of anti-GST antibody (0.5 μg/m1) and horseradish peroxidase/rabbit anti-mouse IgG antibody conjugate (1:2000 dilution) in PBT buffer, washed again, and detected with TMB peroxidase substrate.

Assay [4] concerns the target T2, purified Dvl2PDZ domain polypeptide (human, UniProt O14641 248-364).
T2 construct: range 248-364; As used in the fluorescence polarization assay; also called DvlPDZ domain
T2 sequence (looked up): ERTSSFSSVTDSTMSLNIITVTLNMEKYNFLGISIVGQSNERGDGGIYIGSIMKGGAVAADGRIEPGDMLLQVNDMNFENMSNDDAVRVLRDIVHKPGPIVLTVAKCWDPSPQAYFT
Briefly: fluorescence polarization competition. On the procedure:
(§1) The binding affinities of synthetic peptides were also measured by Flourescence polarization assay. Serial dilution of purified Dvl2PDZ domain polypeptide (1-10 μM) was incubated with 10 nM probe peptide (FAM-KWYGWL-COOH) (SEQ ID NO: 169) in PBS, 0.1% Triton X100 as 30 μl volume in 96-well black HE96 plates (LJL Biosystem, Inc, Calif.), and incubated for 15 minutes at room temperature. Polarization measurements were performed in Analyst platereader (LJL Biosystems, Inc., Sunnyvale, Calif.). […] Competition experiments were performed by addition of serial dilution of the free peptides (0-500 μM) to solution with 10 nM probe and 1 μM Dvl2PDZ. The polarization was measured and IC50 values were derived as described above. Kᵢ values were calculated as described previously.
Flourescence polarization assay was used to measure the affinity of two internal peptide ligands N2 and N3 to DvlPDZ domain.

Assay [5] concerns the target T2, purified Dvl2PDZ domain polypeptide. Briefly: fluorescence polarization competition; 10 nM FAM-KWYGWL probe, 1 µM Dvl2PDZ. On the procedure: as §1
For orientation: Polarisation of emitted light reports the rotation of a fluorescent probe.

Assay [6] has the same target. Nature of the assay: fluorescence polarization, direct titration of Dvl2PDZ against 10 nM probe. On the procedure: as §1

Regarding Ac-RQIKIWFQNRRMKWKKKWYGWL [Ac-… (DVLp_C)], the inhibition of Wnt3a-stimulated transcriptional activity (TopGlow assay, HEK293 cells) in assay [1] stood at 50%.

For SIIYYGWLDGGG [SEQ ID NO 71], in assay [2], the binding result was “binds”.

For ASLKYYGWLDGGG [SEQ ID NO 74], the binding result in assay [2] was “binds”.

As to WTIRDYGWLDGGG [SEQ ID NO 79], the binding result in assay [2] is “binds”.

In the case of EWILTDYGVVGGG [SEQ ID NO 63], in assay [2], the binding result is “binds”.

For WVLVDYGVIGGG [SEQ ID NO 46], in assay [2], the binding result is “binds”.

Turning to ELRWHDYGWIGGG [SEQ ID NO 56], in assay [2], the binding result was “binds”.

Take SEWKNYGYIGGG [SEQ ID NO 62]: the binding result in assay [2] is given as “binds”.

With EKIVKDYGWIGGG [SEQ ID NO 51], in assay [2], the binding result is “binds”.

As to AWIVDYGWIDGGG [SEQ ID NO 76], the binding result in assay [2] was “binds”.

Take DMDFTGFGWLGGG [SEQ ID NO 55]: in assay [2], the binding result was “binds”.

Consider Ac-KGFGML-OH (synthetic peptide), for which the IC50 – broadly, the concentration needed to halve the response being measured – in assay [3] turned out to be 243000 nM.

In the case of QWVMTECGWIGGG [SEQ ID NO 52], the binding result in assay [2] is given as “binds”.

With EMVVTNYGWIGGG [SEQ ID NO 54], in assay [2], the binding result is given as “binds”.

On to TVVWHDYGWIGGG [SEQ ID NO 59], for which, in assay [2], the binding result is recorded as “binds”.

As to SEWKNYGYIGGG [SEQ ID NO 48], the binding result in assay [2] is reported as “binds”.

As to TVVWHDYGWIGGG [SEQ ID NO 50], in assay [2], the binding result is “binds”.

LVPIFYGWIDGGG [SEQ ID NO 73]: the binding result in assay [2] is “binds”.

For LILVNYGWIDGGG [SEQ ID NO 78], the binding result in assay [2] is listed as “binds”.

In the case of PYTWINYGWVGGG [SEQ ID NO 67], the binding result in assay [2] is “binds”.

For ETSWKQYGWIGGG [SEQ ID NO 66], the binding result in assay [2] is “binds”.

For TVVWHDYGWIGGG [SEQ ID NO 65], the binding result in assay [2] is reported as “binds”.

With LWRVTDYGWVGGG [SEQ ID NO 64], the binding result in assay [2] is “binds”.

Take Ac-GEIVLWSDIPG-NH2 (synthetic internal peptide ligand) [Peptide N3 (GEIVLWSDIPG)]: in assay [4], the “fold lower affinity than D1” value is 6 fold. In assay [5], affinity was put at a Ki of 4620 nM.

B1: Peptide D3 (WKWYGWL) (peptide)
peptide: Ac-WKWYGWL
notes: synthetic peptide; D1 with a Trp extension at position -6
Take B1: the IC50 in assay [3] was 140 nM.

B2: Peptide D4 (WKWYGWF) (peptide)
peptide: Ac-WKWYGWF
notes: synthetic peptide; D2 with a Trp extension at position -6
With B2, the IC50 in assay [3] came out at 310 nM.

VWHYYGWLDGGG [SEQ ID NO 80]: in assay [2], the binding result is listed as “binds”.

Turning to Ac-GWKDYGWIDG-NH2 (synthetic internal peptide ligand) [Peptide N2 (GWKDYGWIDG)], the Ki (usually a measure of affinity in units of concentration, obtained from inhibition or displacement) in assay [5] was 1210 nM.

For DTAYKDYGWIGGG [SEQ ID NO 61], in assay [2], the binding result was “binds”.

In the case of SAYKCYGWIDGGG [SEQ ID NO 70], the binding result in assay [2] is “binds”.

In the case of TRFTNYGWLDGGG [SEQ ID NO 75], the binding result in assay [2] is recorded as “binds”.

Regarding ELRWHDYGWIGGG [SEQ ID NO 57], the binding result in assay [2] was “binds”.

For the molecule LVVKDYGWIGGG [SEQ ID NO 47], the binding result in assay [2] was “binds”.

In the case of LWRVTDYGWVGGG [SEQ ID NO 58], in assay [2], the binding result is “binds”.

Turning to DSLKYYGWIGGG [SEQ ID NO 68], the binding result in assay [2] is listed as “binds”.

In the case of QYRFIDYGWIGGG [SEQ ID NO 69], the binding result in assay [2] was “binds”.

For TDYGWIDYPP [SEQ ID NO 72], the binding result in assay [2] was “binds”.

Take GTQWKDYGWLGGG [SEQ ID NO 53]: the binding result in assay [2] is “binds”.

For Ac-KWYGWL-OH (synthetic peptide) [Peptide D1 (KWYGWL-COOH)], the IC50 in assay [3] stood at 1340 nM. This molecule gave a Ki in assay [5] of 725 nM.

B3: Peptide D2 (KWYGWF) (peptide)
peptide: Ac-KWYGWF
notes: synthetic peptide; D1 with Leu to Phe at position 0
Turning to B3, the IC50 in assay [3] turned out to be 930 nM.

In the case of {FAM}-KWYGWL-OH (fluorescence polarization probe, 10 nM) [probe peptide (FAM-KWYGWL-COOH)], in assay [6], the Kd (in general, a measure of binding affinity in units of concentration) stood at 536 nM.

For the molecule LVQLTDYGWIGGG [SEQ ID NO 60], the binding result in assay [2] is listed as “binds”.

For the molecule TEYGWMDYHP [SEQ ID NO 77], the binding result in assay [2] is listed as “binds”.

Take GWTWKDYGMIGGG [SEQ ID NO 49]: the binding result in assay [2] is “binds”.

For the origin of these results see US20100136580A1 (Genentech, published 2010).
